From US11344504 (MODERNATX, dated 2022)

Target: T1, OX40 receptor on mouse CD4+ T-cells (mouse, UniProt P47741 20-272)
T1 sequence (looked up): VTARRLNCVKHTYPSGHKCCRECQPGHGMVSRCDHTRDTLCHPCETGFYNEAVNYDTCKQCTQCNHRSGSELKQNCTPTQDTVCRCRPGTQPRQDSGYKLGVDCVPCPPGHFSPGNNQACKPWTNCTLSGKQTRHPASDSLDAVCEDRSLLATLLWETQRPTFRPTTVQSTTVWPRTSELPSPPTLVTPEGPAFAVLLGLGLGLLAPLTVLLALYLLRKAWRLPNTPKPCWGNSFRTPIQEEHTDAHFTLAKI
Test: cell-based or functional assay

- mouse IL-2 production by CD4+ T-cells co-cultured with OX40L-expressing B16F10 cells, fold over control (mock treated or non-translated mRNA): ~2 fold
B1: murine OX40L polypeptide expressed on the surface of B16F10 cells treated with mOX40L_miR-122 mRNA (ligand)
chain: MEGEGVQPLDENLENGSRPRFKWKKTLRLVVSGIKGAGMLLCFIYVCLQLSSSPAKDPPIQRLRGAVTRCEDGQLFISSYKNEYQTMEVQNNSVVIKCDGLYIIYLKGSFFQEVKIDLHFREDHNPISIPMLNDGRRIVFTVVASLAFKDKVYLTVNAPDTLCEHLQINDGELIVVQLTPGYCAPEGSYHSTVNQVPL
